Measured values: US20240360176A1 (MARSHALL UNIVERSITY RESEARCH, published 2024)

Target: Src kinase (human, endogenous in the HCC cell lines HEP3B and SNU475) (human, UniProt P12931 2-536, phosphorylation read out with a polyclonal antibody to Tyr419 of Src kinase)
Assay: cell-based or functional assay

B1: pNaKtide (peptide)
peptide: not shown
With B1 the “cell proliferation (MTT assay), IC50, Hep3 cells” value was 62.5 µM and the “cell proliferation (MTT assay), IC50, SNU475 cells” value was 6 µM.
